Measured values reported in the RNAGym collection of RNA variant scans (doi:10.1073/pnas.2313332121).
This sample holds only a part of the variants without activity.

B1: TPR 5TU (parent)
chain: GGAUCUUCUCGAUCUAACAAAAAAGACAAAUCUGCCACAAAGCUUGAGAGCAUCUUCGGAUGCAGAGGCGGCAGCCUUCGGUGGCGCGAUAGCGCCAACGUUCUCAACUAUGACACGCAAAACGCGUGCUCCGUUGAAUGGAGUUUAUCAUG

Variants of: B1
Test: polymerase ribozyme fitness, log enrichment relative to wild type (log ratio); higher = more active; in vitro selection for triplet polymerase activity
Outline: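 Fitness compares each genotype's enrichment to that of the wild type on a logarithmic scale, averaging replicates with inverse-variance weights. The logarithm is base 2. Enrichment came from Illumina sequencing of input and output libraries after one triplicate round of in vitro selection, which included frozen incubation at −7 °C, of PCR-built, transcribed mutant libraries of each subunit of a heterodimeric triplet polymerase ribozyme. Only genotypes with ≥10 input reads and ≥1 read per output were kept.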

Variant	polymerase ribozyme fitness (log ratio)
G11C C57G U82A G83U G141U	-2.65
A12C A39U G88C A115C G126A	≤ -4.2
G11A A49G A60U	-2.63
C10G C27A U82C G83A A91U	≤ -4.2
A12C U53A C125G A150U U151G	≤ -4.2
G11A U56A C76U U111C U148A	≤ -4.2
G11A G46U G92A C118U	≤ -4.2
C10G U13G A16C U56A G92C C105A C114U	≤ -4.2
A12C G25U C51G C72G C118G	≤ -4.2
C10A A37U C79A C85U C87A	≤ -4.2
C10G A37U U55A G94A C95G G140C	≤ -4.2
C10G A26C C75A G84A	≤ -4.2
C10G A30G C38A G94U C125G U144C	≤ -4.2
C10G A97U U130G	≤ -4.2
G11A C27A A73C G74A G81A A89U C93G G126U	≤ -4.2
C10G C69G	-4.16
G11C A23U G50C C54G C57U A89G C116A G124C U139A	≤ -4.2
C10G A12U A22G C35G G94A C95U C99A U111C	≤ -4.2
C10U A39G G42U G59A A60C C63U A91U C105U A115C A142C	≤ -4.2
G11C C85U A119G	-2.02
A12C A64U G68C G84U A106C U145G	≤ -4.2
G11U A30U G65U G70C C85G A91U C93A A150U	≤ -4.2
A12G A19C A40G U45C G92A G141A	≤ -4.2
C10U C54A C69U C75U C87A	≤ -4.2

Variant	polymerase ribozyme fitness (log ratio)
C10G A73G G92U	≤ -4.2
G11A C51G C87G A89U C125A U135G	≤ -4.2
C10A C93U G140C	≤ -4.2
G11C C125G A142C	≤ -4.2
C10G A52G C54U G58C C79A C95U	-3.91
A12C U90G	≤ -4.2
C10G A29C A30U G48U U55A A89U C93G G128U	≤ -4.2
C10U A28U A52G U56A A73C C93U U145C C149G	≤ -4.2
G11A G86A	-2.24
G11C C54U C85U A115G	-3.49
G11A U55A U77G G83C A142U	≤ -4.2
G11C A20U A40U U82G G83A C93A C108A	≤ -4.2
G11U C54U C72A U90G G92U U111G U148G	≤ -4.2
A12G A28C C79U U82C G86U G88A A106U C129U U148G G152U	≤ -4.2
G11A C96U	-1.9
A12C C114U	-2.51
C10G A40C U78G G84U G88U G141U	≤ -4.2
G11C A19G A52G G68C A97G C132A U134C U144A	≤ -4.2
C10G A52C G70U C85G G117U	≤ -4.2
C10G C54U U55A C79G C93U A98G C116G A122U	≤ -4.2
G11C A20G G34U A137U	≤ -4.2
U9G U33A C36A C63U C79G C118A U135A	≤ -4.2
G11A A26G U55A C87A G124C G143C U148C	≤ -4.2
C10G C95U	-3.16

Variant	polymerase ribozyme fitness (log ratio)
C10G A20C C36A U53A U134A A142U	≤ -4.2
C10A A41C C76A A91U C96G A121C U127G	≤ -4.2
A12C C54U A91U	≤ -4.2
A12C C57U C76G C96U	≤ -4.2
A12G A16U C54U A73G G83U G84C C95G G140C	≤ -4.2
G11A A49C	≤ -4.2
G11A C14A A40G C79A C93A G124A	≤ -4.2
C10A G58C A66U G80A C95U C96U U144G	≤ -4.2
C10U G80C G84U C87A C105A U151G	≤ -4.2
C10A A23G C32A C38U G46U G59A A60G A97G	≤ -4.2
G11U C38U G58C C96U A98G	-1.45
C10G A12G C27G A49G G62C G67A G68U C93U	≤ -4.2
G11U C14G G46A U55A C87U	≤ -4.2
A12C A52G G68U A98U	-4.19
G11A A23U A66C G92A C114U C125A	≤ -4.2
G11U A39U C57U G70A U101G	≤ -4.2
A12C A37C U53C G86U A97G A113U	≤ -4.2
C10U U55G	-3.19
C10U C54U U55G	≤ -4.2
G11C C27U G92U	-2.73
C10G C76A G83A A91U A106C C108A U130A	≤ -4.2
C10U C27G C54U G92C C114G	≤ -4.2
C10U C54U G71U C85A C96G G133C U145G G152A	≤ -4.2
C10G A29U G34U C38A C87G G88A A122U G136C	≤ -4.2

Variant	polymerase ribozyme fitness (log ratio)
C10U G25C G80A C87G	≤ -4.2
C10A A66U G81A G94U U134A	≤ -4.2
G11C G25U A52C C54U C95U A107G U144A	≤ -4.2
C10U A39G U102C	≤ -4.2
A12G A91U C105G A106U	-4.11
C10G A52G U56A C96U G140U	≤ -4.2
G11A A30C C99A C118U U145G	≤ -4.2
C10U U53A C54U U55A C75G C105U G143U U145C U148A	≤ -4.2
C10A C54G G80C G81A C85U C129A U135C	≤ -4.2
C10U G25U C32A C76A G83U G88C C93G	≤ -4.2
G11U A12G U15A G58C G94U U151G	≤ -4.2
C10U C18G A19C A40U C87G G88U	≤ -4.2
A12C U90G A107G A138G	≤ -4.2
G11A U56A C99U G143C	-3.7
G11A A91G C114U U144C	-4.14
C10A	-2.83
C10G	-2.78
C10U	-2.16
G11U G42C G68A C85U G128U C132G U139G U148A	≤ -4.2
G11A U61A C85A A122C A150C	≤ -4.2
A12G A89C C96G	-1.66
A12C G92C	-0.73
C10A A91U U101G	-4.05
G11C A23C G58A G81C C87A A138U	≤ -4.2

Variant	polymerase ribozyme fitness (log ratio)
C10U U45G A60C C85U	≤ -4.2
G11U G84A U90C A119G C125A	≤ -4.2
G11U C93G	-3.88
C10U U15G A23U C43U U82C G92U U104C	≤ -4.2
G11U U61A C87U	-3.78
A12C C93A	-2.68
G11A U55A	-1.11
C10A A37U G48A A64G G128U A142C	≤ -4.2
C10U U15A G50C C76U C85A	≤ -4.2
C10G C18G U55C C57U U61A	-4.15
A12C A24G A52C A60C	≤ -4.2
G11U U53A C132U U146G	-3.51
G11U C32A G50A C116U A121U C132U U144G	≤ -4.2
C10G A20G G50U G59C C87U	≤ -4.2
C10G A30U C43G G58A G68A G80A A113C	≤ -4.2
A12C C54U	-0.207
G11A U55A A73G	-1.2
G11A C96G A120C U146C	-1.48
G11A A21U G83U G117U	-2.13
U9G U44G G50A U82C C95U U139G	≤ -4.2
C10A C32A C54U C116A G143A	≤ -4.2
C10U C27G C54U C95G C96G A110G	≤ -4.2
C10U A22C A60G C87U G88U	≤ -4.2
A12C A113G A119U U145A	-3.25

Variant	polymerase ribozyme fitness (log ratio)
G11C C35U	-2.11
C10G A89G C103U U134G G141A U151A	≤ -4.2
G11A G94U A150U	-0.735
A12G A21G C43U U55A G83U U144G	≤ -4.2
G11A G84A C85U G88A C99A C131G U139C	≤ -4.2
A12C C87U A115C	-1.97
G11U G25C C32U G50C A60G C95U	≤ -4.2
C10G G11C A12G G70U C85G U101C G128A	≤ -4.2
U9G U33A G50A	-4.2
A12C A21G C36A G48A C93A U135G	≤ -4.2
G11U C35U C51U U55G G59U G68A G80A G83A	≤ -4.2
C10G C14U G50C C54A C76G C105G	≤ -4.2
C10U A19U A21U C32G G42A G80C A137U	≤ -4.2
A12G A41C A66G C79U G86C C103A C105A A107G	≤ -4.2
C10A C54G A73U A120U	≤ -4.2
C10U A17C C38U G58C C96G	-3.69
A12G A89G	-1.16
C10U A52U A60C G88U	≤ -4.2
G11C C32G G34C G88C A106G C108A A110U C149G	≤ -4.2
C10U A26U G42A A47U A89C C96U A107U G112C	≤ -4.2
G11A A89G G94A C105G G112C	≤ -4.2
A12G A37G C54A C57U G71A A115G	≤ -4.2
G11A G48A A52C G83A C87U A119C G124C	≤ -4.2
A12C A20U C79U G84U	≤ -4.2

Variant	polymerase ribozyme fitness (log ratio)
C10A U15G G58A G86U A98G A138U	≤ -4.2
C10A A17C G34A A91C U102G G140U	-3.67
G11C A12G A41U C76A G83A C103G C114A	≤ -4.2
G11A C54G G94A	-2.96
G11U G42C A47C G74A C96G C105U G140A	≤ -4.2
G11A C27U A49G C96A C118U U145A	-4.19
C10U A29G A47C U55G A60U C95U U144A U146G	≤ -4.2
C10U A22G A49G A142C	≤ -4.2
G11U A23U C32U C57U G58A U77C C93G C96U A97U G100U A110U G143C	≤ -4.2
C10A A47G A64G G81U G84U	≤ -4.2
C10U A12C G34A G92C	-4.16
C10A A12G A17U C32A C96U A110U C116U A147C	≤ -4.2
G11A G50C C93U A97U G141U	≤ -4.2
C10A G11U A30U C36A G48A C87G A122G	≤ -4.2
C10A A12G U53A U55A G92C G94C C105U	≤ -4.2
C10G G84A	-3.26
U9G G74A A91G C93U G141U	≤ -4.2
A12C C87A U130C	≤ -4.2
G11C U33G C38U A47C A49C G92A A97G U111G C118U G133U	-4.17
C10A A22U A37C U134C A142G	-4
C10U A52U C85A	≤ -4.2
C10G C93U	-3.86
G11U C18G C54A G88A C118A	≤ -4.2
